Assay results as given in patent US10941182 (Amgen, dated 2021).
Starred links: 1 amine or outer side, 2 acyl side, 3 side chain; linkers in the order of their positions; H or OH if unused. Non-standard residues stand in square brackets, D forms with d. *: point of attachment. C18 diacid = O=C(O)CCCCCCCCCCCCCCCCC(=O)*; dBip = N[C@H](Cc1ccc(-c2ccccc2)cc1)C(=O)O; Oic = O=C(O)[C@@H]1C[C@@H]2CCCC[C@@H]2N1; Phe(4-Cl) = N[C@@H](Cc1ccc(Cl)cc1)C(=O)O; dPhe(4-Cl) = N[C@H](Cc1ccc(Cl)cc1)C(=O)O; Phe(4-I) = N[C@@H](Cc1ccc(I)cc1)C(=O)O; γGlu = O=C(O)[C@H](CCC(=O)[*:2])N[*:1]; NMeR = CN[C@@H](CCCNC(=N)N)C(=O)O; Tridecanoyl = CCCCCCCCCCCCC(=O)*; hArg = N=C(N)NCCCC[C@H](N)C(=O)O; dTic = O=C(O)[C@H]1Cc2ccccc2CN1; Cha = N[C@@H](CC1CCCCC1)C(=O)O; NMeL = CN[C@@H](CC(C)C)C(=O)O; Tle = CC(C)(C)[C@H](N)C(=O)O; Nle = CCCC[C@H](N)C(=O)O; Deg = CCC(N)(CC)C(=O)O; AEEA = NCCOCCOCC(=O)O; Aib = CC(C)(N)C(=O)O; BLeu = β-leucine

B1: apelin polypeptide SEQ ID NO: 277 (peptide)
peptide: Tridecanoyl-[γGlu][AEEA][AEEA][dL][hArg]P[dR][Cha]SHKG[Oic][Nle]P[Phe(4-Cl)]-OH
SMILES: CCCCCCCCCCCCC(=O)N[C@@H](CCC(=O)NCCOCCOCC(=O)NCCOCCOCC(=O)N[C@H](CC(C)C)C(=O)N[C@@H](CCCCNC(=N)N)C(=O)N1CCC[C@H]1C(=O)N[C@H](CCCNC(=N)N)C(=O)N[C@@H](CC1CCCCC1)C(=O)N[C@@H](CO)C(=O)N[C@@H](Cc1c[nH]cn1)C(=O)N[C@@H](CCCCN)C(=O)NCC(=O)N1[C@H](C(=O)N[C@@H](CCCC)C(=O)N2CCC[C@H]2C(=O)N[C@@H](Cc2ccc(Cl)cc2)C(=O)O)C[C@@H]2CCCC[C@@H]21)C(=O)O
B2: apelin polypeptide SEQ ID NO: 273 (peptide)
peptide: Tridecanoyl-[γGlu][AEEA][AEEA][dQ][hArg]P[dR][Cha]S[Aib]KG[Oic][Nle]P[Phe(4-Cl)]-OH
SMILES: CCCCCCCCCCCCC(=O)N[C@@H](CCC(=O)NCCOCCOCC(=O)NCCOCCOCC(=O)N[C@H](CCC(N)=O)C(=O)N[C@@H](CCCCNC(=N)N)C(=O)N1CCC[C@H]1C(=O)N[C@H](CCCNC(=N)N)C(=O)N[C@@H](CC1CCCCC1)C(=O)N[C@@H](CO)C(=O)NC(C)(C)C(=O)N[C@@H](CCCCN)C(=O)NCC(=O)N1[C@H](C(=O)N[C@@H](CCCC)C(=O)N2CCC[C@H]2C(=O)N[C@@H](Cc2ccc(Cl)cc2)C(=O)O)C[C@@H]2CCCC[C@@H]21)C(=O)O
B3: apelin polypeptide SEQ ID NO: 264 (peptide)
peptide: {C18 diacid}-[γGlu][AEEA][AEEA][hArg][dR]Q[hArg]P[dR][NMeL]SHKG[Oic][Phe(4-I)]P[dBip]-OH
SMILES: CC(C)C[C@@H](C(=O)N[C@@H](CO)C(=O)N[C@@H](Cc1c[nH]cn1)C(=O)N[C@@H](CCCCN)C(=O)NCC(=O)N1[C@H](C(=O)N[C@@H](Cc2ccc(I)cc2)C(=O)N2CCC[C@H]2C(=O)N[C@H](Cc2ccc(-c3ccccc3)cc2)C(=O)O)C[C@@H]2CCCC[C@@H]21)N(C)C(=O)[C@@H](CCCNC(=N)N)NC(=O)[C@@H]1CCCN1C(=O)[C@H](CCCCNC(=N)N)NC(=O)[C@H](CCC(N)=O)NC(=O)[C@@H](CCCNC(=N)N)NC(=O)[C@H](CCCCNC(=N)N)NC(=O)COCCOCCNC(=O)COCCOCCNC(=O)CC[C@H](NC(=O)CCCCCCCCCCCCCCCCC(=O)O)C(=O)O
B4: apelin polypeptide SEQ ID NO: 265 (peptide)
peptide: Tridecanoyl-[γGlu][AEEA][AEEA][dQ][hArg]P[dR][Cha]SHKG[Oic][Nle]P[dPhe(4-Cl)]-OH
SMILES: CCCCCCCCCCCCC(=O)N[C@@H](CCC(=O)NCCOCCOCC(=O)NCCOCCOCC(=O)N[C@H](CCC(N)=O)C(=O)N[C@@H](CCCCNC(=N)N)C(=O)N1CCC[C@H]1C(=O)N[C@H](CCCNC(=N)N)C(=O)N[C@@H](CC1CCCCC1)C(=O)N[C@@H](CO)C(=O)N[C@@H](Cc1c[nH]cn1)C(=O)N[C@@H](CCCCN)C(=O)NCC(=O)N1[C@H](C(=O)N[C@@H](CCCC)C(=O)N2CCC[C@H]2C(=O)N[C@H](Cc2ccc(Cl)cc2)C(=O)O)C[C@@H]2CCCC[C@@H]21)C(=O)O
B5: apelin polypeptide SEQ ID NO: 266 (peptide)
peptide: Tridecanoyl-[γGlu][AEEA][AEEA]Q[dR]P[dR][Cha]SHKG[Oic][Nle]P[dPhe(4-Cl)]-OH
SMILES: CCCCCCCCCCCCC(=O)N[C@@H](CCC(=O)NCCOCCOCC(=O)NCCOCCOCC(=O)N[C@@H](CCC(N)=O)C(=O)N[C@H](CCCNC(=N)N)C(=O)N1CCC[C@H]1C(=O)N[C@H](CCCNC(=N)N)C(=O)N[C@@H](CC1CCCCC1)C(=O)N[C@@H](CO)C(=O)N[C@@H](Cc1c[nH]cn1)C(=O)N[C@@H](CCCCN)C(=O)NCC(=O)N1[C@H](C(=O)N[C@@H](CCCC)C(=O)N2CCC[C@H]2C(=O)N[C@H](Cc2ccc(Cl)cc2)C(=O)O)C[C@@H]2CCCC[C@@H]21)C(=O)O
B6: apelin polypeptide SEQ ID NO: 270 (peptide)
peptide: Tridecanoyl-[γGlu][AEEA][AEEA][dQ][hArg]P[dR][Cha]SHKG[Oic][Nle][Aib][Phe(4-Cl)]-OH
SMILES: CCCCCCCCCCCCC(=O)N[C@@H](CCC(=O)NCCOCCOCC(=O)NCCOCCOCC(=O)N[C@H](CCC(N)=O)C(=O)N[C@@H](CCCCNC(=N)N)C(=O)N1CCC[C@H]1C(=O)N[C@H](CCCNC(=N)N)C(=O)N[C@@H](CC1CCCCC1)C(=O)N[C@@H](CO)C(=O)N[C@@H](Cc1c[nH]cn1)C(=O)N[C@@H](CCCCN)C(=O)NCC(=O)N1[C@H](C(=O)N[C@@H](CCCC)C(=O)NC(C)(C)C(=O)N[C@@H](Cc2ccc(Cl)cc2)C(=O)O)C[C@@H]2CCCC[C@@H]21)C(=O)O
B7: apelin polypeptide SEQ ID NO: 269 (peptide)
peptide: Tridecanoyl-[γGlu][AEEA][AEEA][dQ][hArg]P[dR][Cha]SHKG[Oic][Nle]P[dTic]-OH
SMILES: CCCCCCCCCCCCC(=O)N[C@@H](CCC(=O)NCCOCCOCC(=O)NCCOCCOCC(=O)N[C@H](CCC(N)=O)C(=O)N[C@@H](CCCCNC(=N)N)C(=O)N1CCC[C@H]1C(=O)N[C@H](CCCNC(=N)N)C(=O)N[C@@H](CC1CCCCC1)C(=O)N[C@@H](CO)C(=O)N[C@@H](Cc1c[nH]cn1)C(=O)N[C@@H](CCCCN)C(=O)NCC(=O)N1[C@H](C(=O)N[C@@H](CCCC)C(=O)N2CCC[C@H]2C(=O)N2Cc3ccccc3C[C@@H]2C(=O)O)C[C@@H]2CCCC[C@@H]21)C(=O)O
B8: apelin polypeptide SEQ ID NO: 272 (peptide)
peptide: Tridecanoyl-[γGlu][AEEA][AEEA][dQ][hArg]P[dR][Cha]SHKG[Oic][Tle]P[Phe(4-Cl)]-OH
SMILES: CCCCCCCCCCCCC(=O)N[C@@H](CCC(=O)NCCOCCOCC(=O)NCCOCCOCC(=O)N[C@H](CCC(N)=O)C(=O)N[C@@H](CCCCNC(=N)N)C(=O)N1CCC[C@H]1C(=O)N[C@H](CCCNC(=N)N)C(=O)N[C@@H](CC1CCCCC1)C(=O)N[C@@H](CO)C(=O)N[C@@H](Cc1c[nH]cn1)C(=O)N[C@@H](CCCCN)C(=O)NCC(=O)N1[C@H](C(=O)N[C@H](C(=O)N2CCC[C@H]2C(=O)N[C@@H](Cc2ccc(Cl)cc2)C(=O)O)C(C)(C)C)C[C@@H]2CCCC[C@@H]21)C(=O)O
B9: apelin polypeptide SEQ ID NO: 271 (peptide)
peptide: Tridecanoyl-[γGlu][AEEA][AEEA][dQ][hArg]P[dR][Cha]SHKG[Oic][Nle][Deg][Phe(4-Cl)]-OH
SMILES: CCCCCCCCCCCCC(=O)N[C@@H](CCC(=O)NCCOCCOCC(=O)NCCOCCOCC(=O)N[C@H](CCC(N)=O)C(=O)N[C@@H](CCCCNC(=N)N)C(=O)N1CCC[C@H]1C(=O)N[C@H](CCCNC(=N)N)C(=O)N[C@@H](CC1CCCCC1)C(=O)N[C@@H](CO)C(=O)N[C@@H](Cc1c[nH]cn1)C(=O)N[C@@H](CCCCN)C(=O)NCC(=O)N1[C@H](C(=O)N[C@@H](CCCC)C(=O)NC(CC)(CC)C(=O)N[C@@H](Cc2ccc(Cl)cc2)C(=O)O)C[C@@H]2CCCC[C@@H]21)C(=O)O
B10: apelin polypeptide SEQ ID NO: 267 (peptide)
peptide: Tridecanoyl-[γGlu][AEEA][AEEA]Q[dR]P[NMeR][Cha]SHKG[Oic][Nle]P[Phe(4-Cl)]-OH
SMILES: CCCCCCCCCCCCC(=O)N[C@@H](CCC(=O)NCCOCCOCC(=O)NCCOCCOCC(=O)N[C@@H](CCC(N)=O)C(=O)N[C@H](CCCNC(=N)N)C(=O)N1CCC[C@H]1C(=O)N(C)[C@@H](CCCNC(=N)N)C(=O)N[C@@H](CC1CCCCC1)C(=O)N[C@@H](CO)C(=O)N[C@@H](Cc1c[nH]cn1)C(=O)N[C@@H](CCCCN)C(=O)NCC(=O)N1[C@H](C(=O)N[C@@H](CCCC)C(=O)N2CCC[C@H]2C(=O)N[C@@H](Cc2ccc(Cl)cc2)C(=O)O)C[C@@H]2CCCC[C@@H]21)C(=O)O

Molecular target: T1, rat APJ receptor (rat, UniProt Q9JHG3 1-377)
T1 sequence (looked up): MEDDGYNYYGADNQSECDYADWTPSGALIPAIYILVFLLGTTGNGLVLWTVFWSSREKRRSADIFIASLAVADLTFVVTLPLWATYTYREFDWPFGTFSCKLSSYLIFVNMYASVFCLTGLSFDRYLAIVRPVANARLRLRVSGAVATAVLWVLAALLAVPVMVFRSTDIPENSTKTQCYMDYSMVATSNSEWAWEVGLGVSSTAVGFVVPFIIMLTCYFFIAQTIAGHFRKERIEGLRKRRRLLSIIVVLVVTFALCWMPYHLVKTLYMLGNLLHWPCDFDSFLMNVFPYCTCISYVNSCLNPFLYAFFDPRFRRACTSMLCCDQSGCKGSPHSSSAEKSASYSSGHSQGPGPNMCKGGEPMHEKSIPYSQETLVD
Assay: cell-based or functional assay

Binder	EC50 Rat APJ Receptor [µM]
B1	0.0209
Ac-[hArg][hArg]Q[dR]P[dR][NMeL]SHKG[Oic][Phe(4-I)]P[dBip]-OH [apelin polypeptide SEQ ID NO: 20]	0.000706
B2	0.00509
B3	0.193
Tridecanoyl-[γGlu][AEEA][AEEA][dQ][hArg]P[NMeR][BLeu]SHKG[Oic][Nle]P[Phe(4-Cl)]-OH [apelin polypeptide SEQ ID NO: 275]	0.0193
Tridecanoyl-[γGlu][AEEA][AEEA][dQ][hArg]P[dR][BLeu]SHKG[Oic][Nle]P[Phe(4-Cl)]-OH [apelin polypeptide SEQ ID NO: 274]	0.0462
B4	0.0145
B5	0.0333
B6	0.00149
B7	0.0523
B8	0.0115
B9	0.00788
B10	0.0176

Molecular target: T2, human APJ receptor (human, UniProt P35414 1-380)
T2 sequence (looked up): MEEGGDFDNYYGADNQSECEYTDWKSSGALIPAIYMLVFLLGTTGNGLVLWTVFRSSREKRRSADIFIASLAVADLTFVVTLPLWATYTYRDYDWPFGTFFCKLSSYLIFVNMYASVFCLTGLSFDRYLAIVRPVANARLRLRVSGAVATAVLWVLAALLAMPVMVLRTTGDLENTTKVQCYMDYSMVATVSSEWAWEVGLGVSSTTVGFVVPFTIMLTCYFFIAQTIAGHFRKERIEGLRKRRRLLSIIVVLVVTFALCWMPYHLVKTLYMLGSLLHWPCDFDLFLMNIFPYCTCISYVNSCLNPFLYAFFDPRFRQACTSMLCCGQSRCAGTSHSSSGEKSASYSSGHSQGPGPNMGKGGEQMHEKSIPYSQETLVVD
Assay: cell-based or functional assay

Binder	EC50 Human APJ Receptor [nM]
B1	16.1
Ac-[hArg][hArg]Q[dR]P[dR][NMeL]SHKG[Oic][Phe(4-I)]P[dBip]-OH [apelin polypeptide SEQ ID NO: 20]	0.189
B2	1.67
B3	145
Tridecanoyl-[γGlu][AEEA][AEEA][dQ][hArg]P[NMeR][BLeu]SHKG[Oic][Nle]P[Phe(4-Cl)]-OH [apelin polypeptide SEQ ID NO: 275]	3.43
Tridecanoyl-[γGlu][AEEA][AEEA][dQ][hArg]P[dR][BLeu]SHKG[Oic][Nle]P[Phe(4-Cl)]-OH [apelin polypeptide SEQ ID NO: 274]	8.04
B4	1.2
B5	5.81
B6	1.76
B7	73
B8	16.8
B9	11.8
B10	0.753
